According to patent publication US20250049939A1, “NOVEL FLT3 ANTIBODIES AND ANTIBODY-DRUG-CONJUGATES BASED THEREON, THERAPEUTIC METHODS AND USES THEREOF IN COMBINATION WITH TYROSINE KINASE INHIBITORS” (TUBULIS GmbH, priority 2021, published 2025):

How the values were obtained:
[1] = system: ITD mutant human FLT3 (hFLT3ITD); assay: Cell surface binding to Ba/F3 hFLT3ITD, flow cytometry
Source text: FIG. 1: Evaluation of epitope specificity and internalization capability of anti-FLT3 monoclonal antibodies. (A) Affinity of seven anti-FLT3 monoclonal antibody (mab) clones to recombinant human FLT3 measured in enzyme-linked immunosorbent assay (ELISA) normalized to the binding of the antibodies to BSA control. […] (B) Schematic FLT3 receptor. Black arrows indicate common mutations and blue arrows indicate the three identified epitopes of seven anti-FLT3 antibodies analyzed in linear epitope mapping by PEPperPRINT. Figure was created with BioRender.com. (C) Binding and temperature induced internalization of anti-FLT3 antibodies in Ba/F3 cells expressing human wildtype FLT3. […] Remaining surface-bound antibody was detected in flow cytometry. […] MFI=mean fluorescence intensity. […] (D) Cell surface binding of 20D9 mab or control human IgG1 antibody to Ba/F3 cells stably expressing pMIY (Ba/F3-pMIY) empty vector (ev), human wildtype (hFLT3 wt) or ITD mutant human FLT3 (hFLT3ITD) was measured in flow cytometry. […] (E) Temperature induced internalization of 4B12 mab in MOLM-13 (FLT3 positive) cells after 30 min incubation at 37° C. compared to 4° C. and HL-60 (FLT3 negative) after 37° C. incubation assessed in immunofluorescence staining. […] (G) Cell surface binding of 20D9 mab or control hIgG1 antibody to Ba/F3-PMIY ev, hFLT3 wt or epitope mutant FLT3 (hFLT3/S50P/P54R) measured in flow cytometry. […]

human CD64 = biological target: T1, human CD64 (Homo sapiens, UniProt P12314); assay: Cell surface binding to Ba/F3 human CD64, flow cytometry
T1 construct: host or cells: Ba/F3 cells, retrovirally transduced with MSCV-IRES-YFP (pMIY) vector
Method: For antibody binding studies, cells were stained on ice with primary mouse, rat or human anti-FLT3 antibodies (in house) and secondary antibody Goat F(ab′)2 Anti-Human Ig-PE (2012-09), Goat Anti-Mouse IgG (H+L)-PE (1032-09) or Goat Anti-Rat IgG (H+L)-PE (3052-09) purchased from Southern Biotech. For internalization experiments, cells incubated with anti-FLT3 antibodies were washed and incubated for 30 min at 4° C. or 37° C. followed by staining with secondary antibody.
Murine FLT3 (OMu21985D, Genescript), human CD64 (RC207487), CD32 (RC205786) and CD16 (RC206429), were purchased from Origene. Cynomolgues monkey FLT3 gene was synthesized from XM_015439107.1 by Eurofins. The constructs were cloned into retroviral expression vector MSCV-IRES-YFP (pMIY) using the In-Fusion HD Cloning Plus Kit (Takara Bio, Saint-Germain-en-Laye, France). All FLT3 point mutations were generated using the QuikChange II XL Site-Directed Mutagenesis Kit (Agilent Technologies, Santa Clara, CA, USA) and correct sequence was confirmed by Sanger sequencing. […]
For FLT3 expression analysis, cells were stained on ice with primary mouse anti-FLT3-AF647 antibodies for 30 min. […] Binding and expression were subsequently measured at the flow cytometer (BD FACSCanto II) and the results were evaluated with FlowJo version 10.8.1.

[2] = system: FLT3 positive human cell lines; assay: Cytotoxicity in leukemia and lymphoma cell lines, 96 h resazurin; assay type: cell-based; conditions: FLT3 positive and negative cell lines
Source text: (A) Correlation of MFI of CD64 cell surface expression and MFI of FLT3 cell surface expression of myeloid human cell lines measure in flow cytometry. Expression data presented in Supplementary FIGS. 4A and B. Black line indicates simple linear regression with error interval. r=Pearson correlation coefficient; r^2=Coefficient of determination; p=p value from two tailed test with confidence interval of 95%. MFI=mean fluorescence intensity. (B,C,E,F) Assessment of cytotoxicity of ADCs in different human cell lines. Viability was determined after 96h treatment with different concentrations of ADCs by resazurin fluorescence and normalized to untreated control. Dashed line indicates 100 ng/ml drug concentration. Mean±s.d. of n=3 biological replicates. […] Black line indicates simple linear regression with error interval. (E) Treatment of FLT3 positive human cell lines with IgG1-ADC.

T1 sequence (P12314 16-374): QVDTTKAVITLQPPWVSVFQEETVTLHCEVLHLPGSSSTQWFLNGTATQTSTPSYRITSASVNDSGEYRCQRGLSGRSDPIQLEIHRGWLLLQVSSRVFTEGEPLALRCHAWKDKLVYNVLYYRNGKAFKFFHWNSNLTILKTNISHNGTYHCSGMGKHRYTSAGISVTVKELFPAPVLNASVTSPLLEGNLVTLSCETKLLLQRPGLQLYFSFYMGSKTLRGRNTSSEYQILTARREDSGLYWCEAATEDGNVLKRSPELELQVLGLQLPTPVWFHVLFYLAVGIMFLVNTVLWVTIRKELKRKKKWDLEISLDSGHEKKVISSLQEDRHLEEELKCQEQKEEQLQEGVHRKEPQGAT

B1: 20D9: chimeric (rat variable regions, human IgG1) anti-FLT3 monoclonal antibody; VH SEQ ID NO: 5, VL SEQ ID NO: 6 (antibody, V domains shown)
VH: DVMLVESGGGLVQPGRSLKLSCVASGFTFNNYWMTWIRQAPGKGLEWIASITKTGGGTYYPDSVKGRFTISRDNAKSTLYLQMNSLRSEDTATYYCTTLQQLGVMDAWGQGASVTVSSA
VL: DVQMTQSPSVLSASVGDRITLNCKASQNINKELNWYQQKLGEAPKLLIYNTNNLQTGIPSRFSGSGSGTDYTLTISSLQPEDVATYFCFQHKSWPLTFGSGTKLEIKR
modifications: Clone 20D9, heavy chain variable region without a signal seqeunce; Clone 20D9, light chain variable region without a signal seqeunce
Q: B1 was tested. Which “Binding to Ba/F3 cell lines expressing FLT3-ITD” value [1] did it give?
A: specific binding

Q: And the “Binding to Fc receptor CD64 via the IgG1 backbone” value (human CD64)?
A: verified the binding

Q: What about the “Effect of unconjugated antibody on cell proliferation” value [2] of the same molecule?
A: did not impair cell proliferation
